The experiment has as its target T1, human Rif1 (human, UniProt Q5UIP0 1-2472).
T1 construct: Endogenous protein in extracts or fixed cells of human cell lines (e.g. HeLa); It is seen as a >250 kDa polypeptide; the predicted protein has 2472 amino acids and 274 kDa; also called hRif1
Nature of the experiment: co-immunoprecipitation.

T1 sequence (Q5UIP0 other isoform, or with tags, fused parts or gaps limits assumed): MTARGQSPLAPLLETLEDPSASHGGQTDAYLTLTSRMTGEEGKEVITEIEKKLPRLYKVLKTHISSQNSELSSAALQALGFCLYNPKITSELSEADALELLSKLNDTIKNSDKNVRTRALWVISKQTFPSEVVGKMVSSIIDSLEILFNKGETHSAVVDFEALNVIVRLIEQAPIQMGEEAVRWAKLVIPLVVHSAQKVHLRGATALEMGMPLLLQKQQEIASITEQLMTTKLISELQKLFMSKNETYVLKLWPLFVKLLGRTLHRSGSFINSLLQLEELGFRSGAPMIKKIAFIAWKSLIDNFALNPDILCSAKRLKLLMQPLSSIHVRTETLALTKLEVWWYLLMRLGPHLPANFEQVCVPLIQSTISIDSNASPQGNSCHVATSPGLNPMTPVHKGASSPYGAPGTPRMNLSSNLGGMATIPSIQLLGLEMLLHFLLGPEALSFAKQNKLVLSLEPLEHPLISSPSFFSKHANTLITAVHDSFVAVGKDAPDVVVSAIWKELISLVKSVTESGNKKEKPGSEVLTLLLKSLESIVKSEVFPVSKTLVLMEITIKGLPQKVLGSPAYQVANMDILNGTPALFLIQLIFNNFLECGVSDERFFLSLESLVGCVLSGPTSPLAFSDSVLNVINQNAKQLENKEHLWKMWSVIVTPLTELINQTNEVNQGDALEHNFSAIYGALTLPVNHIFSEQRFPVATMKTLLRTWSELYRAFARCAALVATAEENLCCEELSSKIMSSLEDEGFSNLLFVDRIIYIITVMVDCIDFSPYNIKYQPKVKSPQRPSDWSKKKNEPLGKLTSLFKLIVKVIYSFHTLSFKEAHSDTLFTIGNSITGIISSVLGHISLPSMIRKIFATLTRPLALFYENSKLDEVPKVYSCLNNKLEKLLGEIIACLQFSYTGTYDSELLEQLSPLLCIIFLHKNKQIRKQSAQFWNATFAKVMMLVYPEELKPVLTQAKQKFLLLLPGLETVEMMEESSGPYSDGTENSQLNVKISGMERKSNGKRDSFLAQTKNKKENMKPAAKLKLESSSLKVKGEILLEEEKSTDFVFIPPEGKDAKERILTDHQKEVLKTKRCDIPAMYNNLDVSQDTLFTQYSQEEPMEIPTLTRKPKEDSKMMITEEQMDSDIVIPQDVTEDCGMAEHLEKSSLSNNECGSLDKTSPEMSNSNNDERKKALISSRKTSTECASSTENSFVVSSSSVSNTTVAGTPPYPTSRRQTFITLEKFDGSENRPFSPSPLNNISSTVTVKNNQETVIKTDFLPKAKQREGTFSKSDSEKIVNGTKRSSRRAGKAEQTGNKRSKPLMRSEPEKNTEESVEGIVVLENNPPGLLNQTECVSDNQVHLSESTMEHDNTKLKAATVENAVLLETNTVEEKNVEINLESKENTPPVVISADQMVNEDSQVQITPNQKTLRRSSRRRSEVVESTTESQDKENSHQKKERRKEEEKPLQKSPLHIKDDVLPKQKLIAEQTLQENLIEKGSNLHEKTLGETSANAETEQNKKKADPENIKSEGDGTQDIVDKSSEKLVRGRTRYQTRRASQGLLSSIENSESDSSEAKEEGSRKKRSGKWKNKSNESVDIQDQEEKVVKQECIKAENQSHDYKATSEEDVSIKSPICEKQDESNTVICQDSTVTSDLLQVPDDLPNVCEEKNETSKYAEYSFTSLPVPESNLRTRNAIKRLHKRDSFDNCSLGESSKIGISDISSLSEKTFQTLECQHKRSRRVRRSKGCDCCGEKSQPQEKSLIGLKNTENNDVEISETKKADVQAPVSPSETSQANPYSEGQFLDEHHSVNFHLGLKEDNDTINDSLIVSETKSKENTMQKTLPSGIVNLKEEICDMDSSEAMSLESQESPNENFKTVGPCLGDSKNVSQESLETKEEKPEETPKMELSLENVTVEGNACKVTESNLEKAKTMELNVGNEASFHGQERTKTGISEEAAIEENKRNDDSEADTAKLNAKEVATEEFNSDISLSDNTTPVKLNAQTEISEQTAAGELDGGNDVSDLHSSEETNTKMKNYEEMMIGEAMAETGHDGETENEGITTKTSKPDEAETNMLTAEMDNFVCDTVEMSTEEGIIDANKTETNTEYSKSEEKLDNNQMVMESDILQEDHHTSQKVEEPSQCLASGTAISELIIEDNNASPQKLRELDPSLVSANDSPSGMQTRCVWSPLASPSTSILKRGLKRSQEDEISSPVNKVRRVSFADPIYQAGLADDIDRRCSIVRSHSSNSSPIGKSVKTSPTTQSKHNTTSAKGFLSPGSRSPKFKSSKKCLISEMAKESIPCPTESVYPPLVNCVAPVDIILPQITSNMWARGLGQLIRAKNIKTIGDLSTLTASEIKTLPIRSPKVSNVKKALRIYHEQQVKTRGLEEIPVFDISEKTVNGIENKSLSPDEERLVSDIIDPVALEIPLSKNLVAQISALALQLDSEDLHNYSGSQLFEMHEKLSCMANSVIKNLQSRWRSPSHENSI

B1: TRF1 (other, human, UniProt P54274 2-439, looked up)
chain: AEDVSSAAPSPRGCADGRDADPTEEQMAETERNDEEQFECQELLECQVQVGAPEEEEEEEEDAGLVAEAEAVAAGWMLDFLCLSLCRAFRDGRSEDFRRTRNSAEAIIHGLSSLTACQLRTIYICQFLTRIAAGKTLDAQFENDERITPLESALMIWGSIEKEHDKLHEEIQNLIKIQAIAVCMENGNFKEAEEVFERIFGDPNSHMPFKSKLLMIISQKDTFHSFFQHFSYNHMMEKIKSYVNYVLSEKSSTFLMKAAAKVVESKRTRTITSQDKPSGNDVEMETEANLDTRKSVSDKQSAVTESSEGTVSLLRSHKNLFLSKLQHGTQQQDLNKKERRVGTPQSTKKKKESRRATESRIPVSKSQPVTPEKHRARKRQAWLWEEDKNLRSGVRKYGEGNWSKILLHYKFNNRTSVMLKDRWRTMKKLKLISSDSED
On to B1, for which the binding result was “no binding”.

B2: Rap1 (other, human, UniProt Q9NYB0 2-399, looked up)
chain: AEAMDLGKDPNGPTHSSTLFVRDDGSSMSFYVRPSPAKRRLSTLILHGGGTVCRVQEPGAVLLAQPGEALAEASGDFISTQYILDCVERNERLELEAYRLGPASAADTGSEAKPGALAEGAAEPEPQRHAGRIAFTDADDVAILTYVKENARSPSSVTGNALWKAMEKSSLTQHSWQSLKDRYLKHLRGQEHKYLLGDAPVSPSSQKLKRKAEEDPEAADSGEPQNKRTPDLPEEEYVKEEIQENEEAVKKMLVEATREFEEVVVDESPPDFEIHITMCDDDPPTPEEDSETQPDEEEEEEEEKVSQPEVGAAIKIIRQLMEKFNLDLSTVTQAFLKNSGELEATSAFLASGQRADGYPIWSRQDDIDLQKDDEDTREALVKKFGAQNVARRIEFRKK
notes: also called human Rap1
For B2, the binding result was “no binding”.

B3: TRF2 (other, human, UniProt Q15554 1-542, looked up)
chain: MAAGAGTAGPASGPGVVRDPAASQPRKRPGREGGEGARRSDTMAGGGGSSDGSGRAAGRRASRSSGRARRGRHEPGLGGPAERGAGEARLEEAVNRWVLKFYFHEALRAFRGSRYGDFRQIRDIMQALLVRPLGKEHTVSRLLRVMQCLSRIEEGENLDCSFDMEAELTPLESAINVLEMIKTEFTLTEAVVESSRKLVKEAAVIICIKNKEFEKASKILKKHMSKDPTTQKLRNDLLNIIREKNLAHPVIQNFSYETFQQKMLRFLESHLDDAEPYLLTMAKKALKSESAASSTGKEDKQPAPGPVEKPPREPARQLRNPPTTIGMMTLKAAFKTLSGAQDSEAAFAKLDQKDLVLPTQALPASPALKNKRPRKDENESSAPADGEGGSELQPKNKRMTISRLVLEEDSQSTEPSAGLNSSQEAASAPPSKPTVLNQPLPGEKNPKVPKGKWNSSNGVEEKETWVEEDELFQVQAAPDEDSTTNITKKQKWTVEESEWVKAGVQKYGEGNWAAISKNYPFVNRTAVMIKDRWRTMKRLGMN
Take B3: the binding result was “no binding”.

These data come from patent US20060051737A1 (ROCKEFELLER UNIVERSITY, published 2006).
